Data reported in US7638490B2, “Methods of affecting feeding and weight in mammals by administration of relaxin-3” (priority 2004, dated 2009).

Experiments:
SALPR [1] = target: T1, SALPR (Homo sapiens, UniProt Q9NSD7); assay: Suppression of forskolin-increased transcription activity (CRE-PLAP reporter) in SALPR-SE302 cells; assay type: cell-based; conditions: forskolin 1 μmol/L, 1 day incubation, alkaline phosphatase reporter
T1 construct: expressed in transfected cells; host or cells: SE302 cells (HEK293 clone carrying a CRE-VIP promoter PLAP reporter), transduced with retrovirus vector pBabeCL(SALPR)IH and selected with hygromycin
T1 sequence (Q9NSD7 1-469): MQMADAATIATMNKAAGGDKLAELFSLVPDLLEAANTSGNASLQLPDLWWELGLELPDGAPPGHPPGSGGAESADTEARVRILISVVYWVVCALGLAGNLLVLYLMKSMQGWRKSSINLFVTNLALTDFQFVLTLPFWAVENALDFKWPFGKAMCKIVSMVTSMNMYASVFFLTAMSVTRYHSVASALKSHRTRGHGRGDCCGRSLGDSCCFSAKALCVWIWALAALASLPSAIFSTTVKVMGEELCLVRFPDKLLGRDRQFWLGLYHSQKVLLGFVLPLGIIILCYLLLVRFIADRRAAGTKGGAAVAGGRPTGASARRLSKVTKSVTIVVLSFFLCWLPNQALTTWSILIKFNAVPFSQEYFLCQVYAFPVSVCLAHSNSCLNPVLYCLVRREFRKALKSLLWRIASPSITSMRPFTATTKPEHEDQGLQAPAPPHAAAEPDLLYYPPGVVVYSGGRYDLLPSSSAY
Method: On the following day, relaxin-3 (Phoenix Pharmaceuticals) or insulin (Invitrogen) diluted with an assay medium (DMEM supplemented with 0.1% bovine serum albumin) in specified concentrations was added, after which forskolin (Calbiochem) was added to make a final concentration of 1 μmol/L. After 1 day incubation, 15 μl each of the cell supernatant was recovered and then transferred to a 96-well plate for chemiluminescence measurement (Sumitomo Bakelite), 60 μl of buffer solution for assay (280 mmol/L Na2CO3—NaHCO3, 8 mmol/L MgSO4, pH 10) and 70 μl of Lumiphos530 (Lumigen) were added and the reaction was carried out at room temperature for 1 hour, after which chemiluminescence for each well was measured by a fusion plate reader (Perkin Elmer) to assess the transcription activity.

[2] = Body weight gain and amount of feeding under chronic intracerebroventricular administration; assay type: in vivo, rat; conditions: Wistar male rats, chronic icv by osmotic pump, 100 μmol/L at 6 μl/day
Method: A relaxin-3 solution was prepared by dissolving relaxin-3 (Peptide Institute, Inc.) in physiological saline at a concentration of 100 μmol/L. A vehicle solution (physiological saline) or the relaxin-3 solution was poured into an osmotic pump (Alzet osmotic pump model 1002 (DURECT); delivering 6 μl/day), a tube and a cannula for administration, after which they were connected together. Wistar male rats (6 weeks of age; Japan Charles River) were fed feed for experimental animals (MF; Oriental Yeast) and adapted to individual cages for 4 days. Under anesthesia, a guide cannula was inserted into the lateral cerebroventricle of these rats (250-270 g) and an osmotic pump was implanted under the skin. The rats had free access to feed and their body weight and feeding were measured every morning. Further, the decrease in the amount of feed per day is shown as the amount of feeding (FIG. 8).

[3] = Spontaneous locomotor activity under chronic intracerebroventricular administration; assay type: in vivo, rat; conditions: rats, chronic icv; light phase days 2 and 7, dark phase days 3 and 8
Method: Spontaneous locomotor activity was measured using a Versamax system (Accuscan) in the light phase and dark phase on days when significant difference in body weight increasing activity in the rats receiving relaxin-3 administration was recognized.

[4] = Blood leptin concentration after single intracerebroventricular administration; assay type: in vivo, rat; conditions: rats, single icv administration, about 3 hours after administration, vs vehicle, t-test p<0.05
Method: The above-mentioned rats were anesthetized with Nembutal after the feeding measurement (about 3 hours after administration) and the blood was taken from the abdominal aorta. The blood taken was centrifuged at 1,750×g for 15 minutes and the resulting supernatant was stored at −80° C. Later, the amount of leptin in the supernatant was quantitatively determined by a rat leptin quantification ELISA kit (Amersham Bioscience).

[5] = Epididymal fat weight, blood leptin and blood insulin after chronic intracerebroventricular administration; assay type: in vivo, rat; conditions: rats, chronic icv administration, day 14, vs vehicle
Method: After measuring body weight and the amount of feed on the last day of the experiment (day 14), the rats were anesthetized with Nembutal, epididymal fat was taken and the total fat weight was measured (FIG. 9). Further, the blood was taken from the abdominal aorta. The blood was centrifuged at 1,750×g for 15 minutes and the resulting supernatant was stored at −80° C. Later, the amount of leptin in the supernatant was quantitatively determined by a rat leptin measuring kit (L) (IBL) (FIG. 10A). Further, the amount of insulin in the supernatant was quantitatively determined by an ultra sensitive rat insulin measuring kit (Morinaga Institute of Biological Science) (FIG. 10B).

[6] = Amount of feeding after single intracerebroventricular administration; assay type: in vivo; conditions: Wistar male rats, single icv, about 50 pmol/rat, 2 hours after administration, vs vehicle, t-test p<0.01
Method: Wistar male rats (7 weeks of age; Japan Charles River) were fed feed for experimental animals (MF; Oriental Yeast) to be adapted. The rats (250 to 300 g) received cannulation into the lateral cerebroventricle under anesthesia. Administration experiments were carried out a week or later. Relaxin-3 (60 μg; Phoenix Pharmaceuticals) was dissolved in DMSO and added with an artificial cerebrospinal fluid to make a final concentration of 200 μmol/L. The deposited precipitate was removed by centrifugation and the resulting supernatant was used as a relaxin-3 administration solution. The amount of administration (relaxin-3 concentration in the administration solution) was about 50 pmol/rat when calculated using the standard curve with relaxin-3 in the experimental system shown in Example 7. Rats with guide cannula implantation were divided into 2 groups (6 animals per group) and administered with the relaxin-3 administration solution or a vehicle solution (a solution having the same composition as (2) above without relaxin-3) at a rate of 5 μl/2 minutes using an infusion pump. Immediately after the intracerebroventricular administration of the administration solution, rats were put in a cage where pre-weighed feed was placed and fed ad libitum. The amount of feeding was calculated by measuring the decrease in feed 2 hours later.

[7] = Body weight gain under chronic intracerebroventricular administration (locomotor study); assay type: in vivo, rat; conditions: Wistar male rats (5 weeks of age), chronic icv by osmotic pump, from day 1 after administration
Method: A relaxin-3 solution was prepared by dissolving relaxin-3 (Peptide Institute, Inc.) in physiological saline at a concentration of 100 μmol/L. A vehicle solution (physiological saline) or the relaxin-3 solution was poured into an osmotic pump (Alzet osmotic pump model 1002 (DURECT), delivering at 6 μ/day), a tube and a cannula for administration, after which they were connected together. Wistar male rats (5 weeks of age; Japan Charles River) were fed feed for experimental animals (MF; Oriental Yeast) and adapted to individual cages for 5 days. Under anesthesia, a guide cannula was inserted into the lateral cerebroventricle of these rats (170-200 g) and an osmotic pump was implanted under the skin. The operation date was set to be day 0. The rats had free access to feed and water and the body weight was measured every morning, except on days for locomotor activity measurement (FIG. 11).

SALPR [8] = target: T1, SALPR; assay: Screening for relaxin-3 antagonistic substance using SALPR-SE302 cells (CRE-PLAP reporter); assay type: cell-based; conditions: 3 μmol/L forskolin, relaxin-3 at 3 nmol/L

With “insulin: related peptide (Invitrogen) used as specificity control in the SALPR reporter test [reference compound]” the “effect on increase in transcription activity by forskolin” value (“effect on increase” below) (SALPR [1]) was “not affected”.

B1: relaxin-3: polypeptide called relaxin-3 (INSL7) comprising the amino acid sequence of SEQ ID NO: 2; natural ligand of SALPR (protein, listed as Homo sapiens)
chain: MARYMLLLLLAVWVLTGELWPGAEARAAPYGVRLCGREFIRAVIFTCGGSRWRRSDILAHEAMGDTFPDADADEDSLAGELDEAMGSSEWLALTKSPQAFYRGRPSWQGTPGVLRGSRDVLAGLSSSCCKWGCSKSEISSLC
In the case of B1, the amount of feeding ([2]; from day 1) is reported as “significant increase in the amount of feeding”, the body weight increase ([2]; from day 1 after operation) is reported as “significant increase in body weight” and the “spontaneous locomotor activity (total for 90 minutes)” value [3] is reported as “No significant change in locomotor activity”. The blood leptin concentration [4] was “significantly increased”, the “amount of epididymal fat” value [5] was “significantly increased” and the “insulin concentration in blood” value [5] was “significantly increased”. The “leptin concentration in blood” value [5] was “significantly increased”, the amount of feeding [6] was “significantly increased” and the body weight increase [7] was “significant increase in body weight”. For the same molecule, the “effect on increase” value (SALPR [1]) was “suppressed via SALPR activation the increase in transcription activity by forskolin” and the “effect on increase” value (SALPR [8]) was “suppressed the increase in transcription activity by forskolin”.
